# Results from patent US20230310634A1, “ANTI-HUMAN VISTA ANTIBODIES AND USE THEREOF” (IMMUNEXT, INC., priority 2020, published 2023).
# T1: human VISTA on cells (human) (UniProt Q9H7M9)
# T1 sequence: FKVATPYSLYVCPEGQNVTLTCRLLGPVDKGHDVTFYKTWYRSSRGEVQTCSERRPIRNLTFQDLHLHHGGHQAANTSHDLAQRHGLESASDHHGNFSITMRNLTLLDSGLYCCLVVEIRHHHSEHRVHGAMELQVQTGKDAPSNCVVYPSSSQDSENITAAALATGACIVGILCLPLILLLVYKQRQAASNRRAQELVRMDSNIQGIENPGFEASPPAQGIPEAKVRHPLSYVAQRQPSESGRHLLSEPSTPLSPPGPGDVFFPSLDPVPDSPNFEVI
# B1: Anti-VISTA GG8 (antibody, V domains shown)
# VH: EVQLQQSGPELVKPGTSMKISCKASGYSFTGYTMNWVRQSHGKNLEWIGLINPYNGGINYNQKFKARATLTVDKSSSTAYMELLSLTSEDSAVYYCARRTLLRPYFFDYWGQGTTLTVSS
# VL: DIVLTQSPASLAVSLGQRATISCRASQSVSTSTFSYMHWYQQKPGQPPKLLIKYASNLESGVPARFSGSGSGTDFTLNIHPVEEEDTATYYCQHSWEIPYTFGGGTKLEIK
# modifications: Alexa Fluor 647 dye conjugated to the antibody (p-1554); attachment sites not given
# Columns and labels:
# [1] = target: T1, human VISTA on cells (human); assay: flow cytometry with quantification beads, CD20+ B cells in human whole blood, n=3 donors
# [2] = target: T1, human VISTA on cells (human); assay: flow cytometry with quantification beads, CD8+ T cells of human PBMC, n=5 donors
# [3] = target: T1, human VISTA on cells (human); assay: flow cytometry with quantification beads, Tregs in human whole blood, n=3 donors
# [4] = target: T1, human VISTA on cells (human); assay: flow cytometry with quantification beads, CD4+ T cells of human PBMC, n=5 donors
# [5] = target: T1, human VISTA on cells (human); assay: flow cytometry with quantification beads, CD4+ T cells in human whole blood, n=3 donors
# [6] = target: T1, human VISTA on cells (human); assay: flow cytometry with quantification beads, CD14+ monocytes in human whole blood, n=3 donors
# [7] = target: T1, human VISTA on cells (human); assay: flow cytometry with quantification beads, CD4+ CD25+ CD127low Tregs of human PBMC, n=5 donors
# [8] = target: T1, human VISTA on cells (human); assay: flow cytometry with quantification beads, CD14+ monocytes of human PBMC, n=5 donors
# [9] = target: T1, human VISTA on cells (human); assay: flow cytometry with quantification beads, CD66b+ neutrophils in human whole blood, n=3 donors
# [10] = target: T1, human VISTA on cells (human); assay: flow cytometry with quantification beads, CD8+ T cells in human whole blood, n=3 donors
binder,measurement,setting,value
B1,antibody binding capacity (ABC) (ABC (molecules per cell)),[1],1280
same,antibody binding capacity (ABC),[2],9960 molecules
same,antibody binding capacity (ABC),[3],7490 molecules
same,antibody binding capacity (ABC),[4],5940 molecules
same,antibody binding capacity (ABC),[5],8720 molecules
same,antibody binding capacity (ABC) (ABC (molecules per cell)),[6],224000
same,antibody binding capacity (ABC),[7],6640 molecules
same,antibody binding capacity (ABC) (ABC (molecules per cell)),[8],112000
same,antibody binding capacity (ABC) (ABC (molecules per cell)),[9],68600
same,antibody binding capacity (ABC),[10],5010 molecules
